Legend:
[1] = molecular target: T1, TMEM149-Fc (human TMEM149 extracellular domain with C-terminal human IgG1 Fc) (human, UniProt Q9H665 23-160); assay: SPR, TMEM149-Fc captured on the chip
T1 construct: also called recombinant human TMEM149-Fc; Fc-TMEM149; not shown: human IgG1 Fc, C-terminal
T1 sequence: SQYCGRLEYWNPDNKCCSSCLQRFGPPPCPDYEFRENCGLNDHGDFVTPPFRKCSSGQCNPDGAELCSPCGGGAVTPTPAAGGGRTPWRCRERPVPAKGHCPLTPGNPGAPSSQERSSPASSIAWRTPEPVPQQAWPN
Method: (§1) Surface plasmon resonance (SPR) was run on a BiaCore 3000 (GE healthcare, Piscataway, N.J.) at 25° C. using anti-human IgG F(ab′)₂ (Jackson Immunoresearch, West Grove, Pa.) amine-coupled to BiaCore CM5 sensor chips. For kinetic analysis of protein interactions, Fc-fusion proteins at 25 μg/ml were first captured onto sensor chips by injecting them for 3 min at 5 μl/min. Then, test proteins diluted to their indicated concentrations in HBS-P buffer (0.01 M Hepes, pH 7.4 0.15 M NaCl 0.005% Surfactant P20) were injected for 3 min at 30 μl/min. Dissociation in HBS-P buffer alone was then measured at a flow rate of […]. Sensor chips surfaces were regenerated by injecting 10 mM glycine pH 1.5 for 30 s after each cycle. Kinetic parameters were determined by fitting the data to a 1:1 Langmuir model using the Biacore 3000 evaluation software (GE Healthcare).

[2] = molecular target: T2, nerve growth factor receptor (NGFR) on transfected 293T cells (UniProt P08138 29-427, limits assumed); assay: flow cytometry of transfected 293T cells, FLAG-IGFL3 detected with fluorescent anti-FLAG
T2 construct: whole, on cells
T2 sequence (looked up): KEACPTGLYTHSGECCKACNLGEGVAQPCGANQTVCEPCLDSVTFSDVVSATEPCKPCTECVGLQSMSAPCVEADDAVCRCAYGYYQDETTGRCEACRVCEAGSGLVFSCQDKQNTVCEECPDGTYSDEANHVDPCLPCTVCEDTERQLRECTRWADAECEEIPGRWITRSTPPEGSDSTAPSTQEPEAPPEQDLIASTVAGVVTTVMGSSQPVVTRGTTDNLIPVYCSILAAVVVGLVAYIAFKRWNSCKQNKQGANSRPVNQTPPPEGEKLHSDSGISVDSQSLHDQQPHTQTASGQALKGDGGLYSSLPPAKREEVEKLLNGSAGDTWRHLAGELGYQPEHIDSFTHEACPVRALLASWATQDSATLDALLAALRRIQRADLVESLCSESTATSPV

[3] = molecular target: T3, DR4 on transfected 293T cells (UniProt O00220 24-468, limits assumed); assay: as above
T3 construct: whole, on cells
T3 sequence (looked up): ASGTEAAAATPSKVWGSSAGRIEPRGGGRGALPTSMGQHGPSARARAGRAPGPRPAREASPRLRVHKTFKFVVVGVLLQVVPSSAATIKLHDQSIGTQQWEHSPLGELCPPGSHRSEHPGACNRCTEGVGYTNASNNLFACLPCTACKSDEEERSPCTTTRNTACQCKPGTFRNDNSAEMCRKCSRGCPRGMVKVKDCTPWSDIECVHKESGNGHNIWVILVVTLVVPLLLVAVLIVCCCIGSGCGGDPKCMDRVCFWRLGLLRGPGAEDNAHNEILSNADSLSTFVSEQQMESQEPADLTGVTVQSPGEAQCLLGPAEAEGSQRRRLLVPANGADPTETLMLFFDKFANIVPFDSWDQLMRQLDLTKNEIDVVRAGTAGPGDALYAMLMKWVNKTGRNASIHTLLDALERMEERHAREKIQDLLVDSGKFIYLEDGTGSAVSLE

[4] = molecular target: T1, TMEM149-Fc (human TMEM149 extracellular …); assay: SPR, binding to immobilised TMEM149-Fc (7,145 RU per paragraph 67)
Method: as §1

[5] = molecular target: T1, TMEM149-Fc (human TMEM149 extracellular …); assay: SPR (BiaCore 3000); TMEM149-Fc captured by anti-human IgG, 1:1 Langmuir fit
Method: as §1

[6] = molecular target: T2, nerve growth factor receptor (NGFR) on …; assay: flow cytometry of transfected 293T cells, FLAG-IGFL1 detected with fluorescent anti-FLAG
[7] = molecular target: T3, DR4 on transfected 293T cells; assay: as above
[8] = molecular target: T4, Human TMEM149 on the cell surface (transfected HEK293T cells; human leukocytes) (human, UniProt Q9H665 23-355); assay: radioligand competition assay; 125I-FLAG-IGFL1 against unlabelled ligand on HEK293T cells stably expressing human TMEM149
T4 construct: also called hTMEM149; MK61
T4 sequence: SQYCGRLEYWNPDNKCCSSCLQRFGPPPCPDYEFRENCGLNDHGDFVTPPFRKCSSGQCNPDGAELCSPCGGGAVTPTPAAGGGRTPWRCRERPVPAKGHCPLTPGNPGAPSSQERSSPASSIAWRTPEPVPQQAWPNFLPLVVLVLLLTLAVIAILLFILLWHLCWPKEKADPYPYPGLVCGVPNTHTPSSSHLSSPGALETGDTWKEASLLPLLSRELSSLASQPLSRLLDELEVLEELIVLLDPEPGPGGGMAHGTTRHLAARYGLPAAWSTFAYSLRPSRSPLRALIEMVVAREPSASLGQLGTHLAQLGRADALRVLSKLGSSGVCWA
Method: (§2) To determine the affinity of IGFL with TMEM149, ligands were iodinated with ¹²⁵I using the lactoperoxidase method and free ¹²⁵I-Na was removed from the labeled protein by gel filtration using a NAP-5 column. 50 μL competition reaction mixtures containing a fixed concentration of iodinated ligand and decreasing concentrations of serially diluted, unlabeled ligand were placed into 96-well plates in triplicate. To each well, HEK293T cells stably expressing human or mouse TMEM149 were added at a density of 100,000 cells in 0.2 mL of binding buffer (Dulbecco's Modified Eagle Medium with 1% bovine serum albumin, 50 mM HEPES pH 7.2 and 2 mM sodium azide). The final concentration of the iodinated ligand with cells in each competition reaction was 100 pM (100,000 cpms per 0.25 mL). The final concentration of the unlabeled ligand with cells in the competition reaction varied, starting at 500 nM and then decreasing by 1- to 2-fold dilution for ten concentrations, and included a zero-added, buffer-only sample. Competition reactions were incubated for 2 hours at room temperature, then transferred to a Millipore Multiscreen filter plate (Billerica, Mass.) and washed 4 times with binding buffer to separate the free from bound iodinated antibody. The filters were counted on a Wallac Wizard 1470 gamma counter (PerkinElmer Life and Analytical Sciences Inc.; Wellesley, Mass.).

[9] = molecular target: T4, Human TMEM149 on the cell surface …; assay: radioligand competition: 125I-FLAG-IGFL1 (100 pM) on HEK293T cells expressing human TMEM149, unlabelled FLAG-IGFL1 varied
Method: B) FACS analysis of IFGL1 binding to cells expressing surface TMEM149. […] Reference is made to Examples 10 and 11.
as §2, with “Competition reactions were incubated for 2 hours at room temperature, then transferred to a Millipore Multiscreen filter plate (Billerica, Mass.) and washed 4 times with binding buffer to separate the free from bound iodinated antibody.” left out

[10] = molecular target: T1, TMEM149-Fc (human TMEM149 extracellular …); assay: SPR screen of TNF-like ligands
Method: as §1

B1: FLAG-IGFL3 (recombinant human IGFL3 with FLAG epitope tag) (ligand, not shown: small tags and cut ends)
chain: TTDAPVGSGLWLCQPTPRCGNKIYNPSEQCCYDDAILSLKETRRCGSTCTFWPCFELCCPESFGPQQKFLVKLRVLGMKSQCHLSPISRSCTRNRRHVLYP
notes: also called hIGFL3
Kd [1]: 80 pM | binding result [2]: no binding | binding result [3]: no binding

B2: FLAG-IGFL4 (recombinant human IGFL4 with FLAG epitope tag) (ligand, not shown: small tags and cut ends)
chain: EGVTDLRLWLCQPAPRCGEWTYNPLEQCCDDGVILDLNQTRLCGSSCTFWPCFQHCCLESLGSQNQTVVRFKVPGMKPDCKSSPITRICAQEYHPKSPVSRSDLI
binding result [4]: no binding (tested: 108 µg/ml)

B3: FLAG-IGFL1 (recombinant human IGFL1 with FLAG epitope tag) (ligand)
chain: APVAPMTPYLMLCQPHKRCGDKFYDPLQHCCYDDAVVPLARTQTCGNCTFRVCFEQCCPWTFMVKLINQNCDSARTSDDRLCRSVS
notes: Made in CHO cells; Signal peptide cleavage is predicted only; also called hIGFL1; IGFL1-FLAG; not shown: printed both as FLAG-IGFL1 and IGFL1-FLAG, so the end that carries the tag is not
Kd [5]: 1200 pM | binding result [6]: no binding | binding result [7]: no binding | Kd [8]: 310 pM | IC50 (read off the curve) [9]: ~500 pM

B4: FLAG-IGFL2 (recombinant human IGFL2 with FLAG epitope tag) (ligand, not shown: small tags and cut ends)
chain: PAGSEPWLCQPAPRCGDKIYNPLEQCCYNDAIVSLSETRQCGPPCTFWPCFELCCLDSFGLTNDFVVKLKVQGVNSQCHSSPISSKCESRRRFP
notes: Signal peptide cleavage is predicted only
binding result [4]: binds

B5: GITRL (ligand, UniProt Q9UNG2 52-177, looked up)
chain: ETAKEPCMAKFGPLPSKWQMASSEPPCVNKVSDWKLEILQNGLYLIYGQVAPNANYNDVAPFEVRLYKNKDMIQTLTNKSKIQNVGGTYELHVGDTIDLIFNSEHQVLKNNTYWGIILLANPQFIS
binding result [10]: no binding

B6: OX40L (ligand, UniProt P23510 51-183, looked up)
chain: QVSHRYPRIQSIKVQFTEYKKEKGFILTSQKEDEIMKVQNNSVIINCDGFYLISLKGYFSQEVNISLHYQKDEEPLFQLKKVRSVNSLMVASLTYKDKVYLNVTTDNTSLDDFHVNGGELILIHQNPGEFCVL
binding result [10]: no binding

From patent US20130302347A1 (Genentech, published 2013)
